Biological target: surface GFP (GFP fused to the PDGF transmembrane domain) [GFP: P42212]
Assay: cell-based or functional assay

α-GFP nanobody (LaG16_2) synNotch Gal4VP64 receptor (from UniProt Q01705 1427-1752)
fraction of T cells with BFP reporter expression at 24 hours: > 50%
